Tests used:
FimI = molecular target: T1, FimI (E. coli W3110, UniProt P39264 20-179); experiment: 37 °C, excess FimC
T1 chain: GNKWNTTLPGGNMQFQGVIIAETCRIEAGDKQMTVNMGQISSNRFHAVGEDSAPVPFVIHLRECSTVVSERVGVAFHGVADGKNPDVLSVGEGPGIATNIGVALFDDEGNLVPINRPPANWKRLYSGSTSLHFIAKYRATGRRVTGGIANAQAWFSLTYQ

[1] = molecular target: T2, FimI-FimAtHis (the two subunits of the ternary FimCHisIA complex) (E. coli W3110 | E. coli, UniProt P39264 20-179; P04128 37-182); experiment: 37 °C, excess FimC; printed as 0.18 h-1
T2 chain 1: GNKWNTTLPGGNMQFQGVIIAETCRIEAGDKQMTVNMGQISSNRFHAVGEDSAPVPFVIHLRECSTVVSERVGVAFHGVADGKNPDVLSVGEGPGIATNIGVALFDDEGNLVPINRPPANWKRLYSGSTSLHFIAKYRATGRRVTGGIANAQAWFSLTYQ
T2 chain 2: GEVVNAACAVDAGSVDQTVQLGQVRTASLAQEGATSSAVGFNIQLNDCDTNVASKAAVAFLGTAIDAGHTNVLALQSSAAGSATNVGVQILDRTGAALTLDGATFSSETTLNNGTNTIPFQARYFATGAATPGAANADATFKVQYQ

FimFt = molecular target: T3, FimFt (E. coli); experiment: 37 °C, excess FimC; printed as 0.44 h-1
T3 chain: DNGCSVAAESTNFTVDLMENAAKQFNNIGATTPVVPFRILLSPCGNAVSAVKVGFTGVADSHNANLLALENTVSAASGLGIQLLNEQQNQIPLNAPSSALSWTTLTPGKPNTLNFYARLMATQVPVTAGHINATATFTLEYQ

[2] = molecular target: T4, FimF-FimGt (the two subunits of the ternary FimCHisFG complex) (E. coli, UniProt P08189 21-176; P08190 24-167); experiment: 37 °C, excess FimC; printed as 0.49 h-1
T4 chain 1: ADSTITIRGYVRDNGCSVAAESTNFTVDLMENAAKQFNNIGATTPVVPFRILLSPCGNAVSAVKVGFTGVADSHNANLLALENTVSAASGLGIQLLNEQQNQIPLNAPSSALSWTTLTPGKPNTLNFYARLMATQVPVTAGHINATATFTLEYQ
T4 chain 2: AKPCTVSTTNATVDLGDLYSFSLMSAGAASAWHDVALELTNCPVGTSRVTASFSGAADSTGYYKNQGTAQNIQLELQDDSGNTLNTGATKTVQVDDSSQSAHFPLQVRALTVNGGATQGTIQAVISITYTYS

koff (FimI): 0.011 s⁻¹
koff [1]: 5e-05 s⁻¹
koff (FimFt): 0.000122 s⁻¹
koff [2]: 0.000136 s⁻¹
B1: FimCHis (FimC with C-terminal hexahistidine tag) (natural protein)
chain: GVALGATRVIYPAGQKQEQLAVTNNDENSTYLIQSWVENADGVKDGRFIVTPPLFAMKGKKENTLRILDATNNQLPQDRESLFWMNVKAIPSMDKSKLTENTLQLAIISRIKLYYRPAKLALPPDQAAEKLRFRRSANSLTLINPTPYYLTVTELNAGTRVLENALVPPMGESTVKLPSDAGSNITYRTINDYGALTPKMTGVME

— PMC10673952 (2023)
